Reference: patent publication US20060275211A1

Target: Tag5-161P2F10B, purified recombinant extracellular domain (ECD) of 161P2F10B (amino acids 46-875) (human) (UniProt O14638)
Assay: SPR, MAb captured on CM5 chip, recombinant 161P2F10B 1-100 nM injected

Row | Binder | Kd [nM] | koff [s⁻¹] | kon [M⁻¹ s⁻¹]
1 | H16-1.29.1.1 (antibody, part only; not given: light chain, V domains shown, part only) VH: CRLVESGAEVKKPGASVKVSCKASGYTFTGYYMHWVRQAPGQGLEWMGWINPNSGGTNYAQKFQGRVTMTRDTSISTAYMELSRLRSDDTAVYYCARDQVDIVATRYYYYYYGMDVWGQGTTVTVSSASTKGPSVFPLAPSSKST | 26 | 0.00083 | 32000
2 | H16-1.92.1.1 (antibody, part only; not given: light chain, V domains shown, part only) VH: EVLLVESGPGLVKPSETLSLTCTVSGGSISSSSYFWGWIRQPPGKGLEWIGSIYYSGNTYYNPSLKSRVTISVDTSKNRFSLKLSSVTAADTAVYCCASATTVTTAFDIWGQGTMVTVSSASTKGPSVFPLAPSS | 9.8 | 0.00036 | 37000
